Results reported in patent publication US20240417464A1 (published 2024).
One block for each binder: values may come before it.

Tests used:
[1] = target: T1, antibody-half molecule A1 with PF1H and PF1L-k0 (PF1H-DA303v2/PF1L-k0); assay: SPR (Biacore T200), about 50 RU of half molecule A captured on chip-bound biotinylated antigen peptide, half molecule B at 2.5 mg/mL as analyte
Method: (§1) The interaction between the obtained antibody-half molecules was analyzed using Biacore (registered trademark) T200. Biotin CAPture Kit, Series S (GE Healthcare) was used for the measurement, and HBS-EP+10X (GE Healthcare) diluted 1/10th was used as a running buffer. The measurement temperature was 25° C. For the sensor chip, Series S Sensor Chip CAP (GE Healthcare) onto which previously-biotinylated antigen peptides were allowed to interact and thereby immobilized was used. These chips were allowed to capture approximately 50 RU of the antibody-half molecule A of interest and then interact with the antibody-half molecule B of interest diluted with the running buffer at 2.5 mg/mL for 180 seconds at a flow rate of 30 μL/min, and measurement was carried out. The molar binding ratio was calculated based on the following Formula 2. The antibody-half molecule A captured on the chip was washed as described in the instructions attached to the kit, and the chip was regenerated and reused.
(§2) At this time, for the antibody-half molecules to be captured, PF1H (SEQ ID NO: 22), which is the H chain variable region portion of the anti-human IL6 receptor antibody described in WO 2009/041621, was used as the H chain variable region portion, PF1L (SEQ ID NO: 23), which is the L chain variable region portion of the anti-human IL6 receptor antibody described in WO 2009/041621, was used as the L chain variable region portion, and k0 was used as the L chain constant region portion. In addition, for the antibody-half molecules used as analytes, IC17H (SEQ ID NO: 24), which is the anti-KLH antibody described in WO 2015/174439, was used as the H chain variable region, IC17L (SEQ ID NO: 25), which is the anti-KLH antibody described in WO 2015/174439, was used as the L chain variable region, and k0 was used as the L chain constant region.

[2] = target: T1, antibody-half molecule A1 with PF1H and …; assay: SPR (Biacore T200), about 50 RU of half molecule A captured on chip-bound biotinylated antigen peptide, half molecule B at 2.5 mg/mL as analyte (Example 10)
Method: as §1
(§3) At this time, for the antibody-half molecule to be captured, PF1H (SEQ ID NO: 22), which is the H chain variable region portion of the anti-human IL6 receptor antibody described in WO 2009/041621, was used as the H chain variable region portion, PF1L (SEQ ID NO: 23), which is the L chain variable region portion of the anti-human IL6 receptor antibody described in WO 2009/041621, was used as the L chain variable region portion, and k0 was used as the L chain constant region portion. In addition, for the antibody-half molecules used as analytes, IC17H (SEQ ID NO: 24), which is the anti-KLH antibody described in WO 2015/174439, was used as the H chain variable region, IC17L (SEQ ID NO: 25), which is the anti-KLH antibody described in WO 2015/174439, was used as the L chain variable region, and k0 was used as L chain constant region.

[3] = target: antibody-half molecule A5 with PF1H and PF1L-k0 (PF1H-DA430v2/PF1L-k0); assay: SPR (Biacore T200), about 50 RU of half molecule A captured on chip-bound biotinylated antigen peptide, half molecule B at 2.5 mg/mL as analyte
Method: as §1, §2

[4] = target: antibody-half molecule A4 with PF1H and PF1L-k0 (PF1H-DA424v2/PF1L-k0); assay: as above
Method: as §1, §2

[5] = target: antibody-half molecule A6 with PF1H and PF1L-k0 (PF1H-DA303v2.n.n/PF1L-k0); assay: SPR (Biacore T200), about 50 RU of half molecule A captured on chip-bound biotinylated antigen peptide, half molecule B at 2.5 mg/mL as analyte (Example 10)
Method: as §1, §3

[6] = target: antibody-half molecule A2 with PF1H and PF1L-k0 (PF1H-DA402v2/PF1L-k0); assay: SPR (Biacore T200), about 50 RU of half molecule A captured on chip-bound biotinylated antigen peptide, half molecule B at 2.5 mg/mL as analyte
Method: as §1, §2

[7] = target: antibody-half molecule A3 with PF1H and PF1L-k0 (PF1H-DA405v2/PF1L-k0); assay: as above
Method: as §1, §2

T1 sequence (heavy, as listed by the source): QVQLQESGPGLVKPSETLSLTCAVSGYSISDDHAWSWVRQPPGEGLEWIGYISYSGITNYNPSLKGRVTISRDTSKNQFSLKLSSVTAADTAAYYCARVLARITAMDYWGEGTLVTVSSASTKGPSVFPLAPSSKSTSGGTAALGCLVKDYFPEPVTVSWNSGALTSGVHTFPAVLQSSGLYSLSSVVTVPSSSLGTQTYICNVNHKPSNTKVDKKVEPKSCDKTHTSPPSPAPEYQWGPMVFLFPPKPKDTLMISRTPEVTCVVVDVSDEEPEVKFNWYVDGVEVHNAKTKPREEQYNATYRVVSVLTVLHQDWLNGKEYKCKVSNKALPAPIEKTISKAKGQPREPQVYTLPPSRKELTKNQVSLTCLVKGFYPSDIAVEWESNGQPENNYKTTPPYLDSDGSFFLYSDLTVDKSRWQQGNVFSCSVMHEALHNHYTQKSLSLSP
Chain of antibody-half molecule A5 with PF1H and PF1L-k0 (PF1H-DA430v2/PF1L-k0) (heavy, as listed by the source): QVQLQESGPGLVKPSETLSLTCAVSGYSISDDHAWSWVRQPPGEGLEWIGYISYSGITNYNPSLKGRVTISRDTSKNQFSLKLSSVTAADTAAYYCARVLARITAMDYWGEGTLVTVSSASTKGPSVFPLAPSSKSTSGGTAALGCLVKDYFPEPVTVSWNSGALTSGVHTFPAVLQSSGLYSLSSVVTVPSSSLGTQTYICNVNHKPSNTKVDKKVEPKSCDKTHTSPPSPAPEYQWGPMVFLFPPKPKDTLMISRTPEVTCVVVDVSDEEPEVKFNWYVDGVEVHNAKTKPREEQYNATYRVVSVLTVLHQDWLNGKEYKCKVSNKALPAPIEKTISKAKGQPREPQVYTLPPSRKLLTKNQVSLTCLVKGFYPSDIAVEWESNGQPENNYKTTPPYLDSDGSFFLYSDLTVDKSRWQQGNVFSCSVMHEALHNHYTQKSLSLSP
Chain of antibody-half molecule A3 with PF1H and PF1L-k0 (PF1H-DA405v2/PF1L-k0) (heavy, as listed by the source): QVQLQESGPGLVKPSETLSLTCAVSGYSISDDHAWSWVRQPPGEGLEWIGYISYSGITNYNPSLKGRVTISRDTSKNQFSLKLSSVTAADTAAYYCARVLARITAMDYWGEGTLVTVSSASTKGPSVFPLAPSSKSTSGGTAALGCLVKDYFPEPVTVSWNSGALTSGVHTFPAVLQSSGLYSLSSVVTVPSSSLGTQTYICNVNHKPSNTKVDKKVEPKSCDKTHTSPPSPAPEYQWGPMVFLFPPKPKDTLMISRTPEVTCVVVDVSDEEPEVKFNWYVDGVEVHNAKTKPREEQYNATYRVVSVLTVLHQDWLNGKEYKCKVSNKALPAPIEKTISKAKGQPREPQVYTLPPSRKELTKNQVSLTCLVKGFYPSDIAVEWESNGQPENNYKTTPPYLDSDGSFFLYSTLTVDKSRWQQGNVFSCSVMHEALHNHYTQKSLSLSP
Chain of antibody-half molecule A2 with PF1H and PF1L-k0 (PF1H-DA402v2/PF1L-k0) (heavy, as listed by the source): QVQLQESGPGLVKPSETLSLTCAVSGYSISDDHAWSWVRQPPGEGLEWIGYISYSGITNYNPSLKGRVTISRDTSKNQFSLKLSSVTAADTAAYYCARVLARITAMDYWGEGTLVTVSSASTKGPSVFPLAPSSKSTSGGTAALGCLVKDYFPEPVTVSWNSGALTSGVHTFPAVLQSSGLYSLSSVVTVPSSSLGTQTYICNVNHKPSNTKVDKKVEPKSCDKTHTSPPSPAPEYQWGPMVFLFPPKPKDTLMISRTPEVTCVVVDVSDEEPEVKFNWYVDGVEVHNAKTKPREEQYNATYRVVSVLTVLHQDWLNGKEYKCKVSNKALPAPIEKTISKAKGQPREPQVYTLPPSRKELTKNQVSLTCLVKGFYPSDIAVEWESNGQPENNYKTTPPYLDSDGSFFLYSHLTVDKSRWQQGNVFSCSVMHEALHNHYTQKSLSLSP
Chain of antibody-half molecule A6 with PF1H and PF1L-k0 (PF1H-DA303v2.n.n/PF1L-k0) (heavy, as listed by the source): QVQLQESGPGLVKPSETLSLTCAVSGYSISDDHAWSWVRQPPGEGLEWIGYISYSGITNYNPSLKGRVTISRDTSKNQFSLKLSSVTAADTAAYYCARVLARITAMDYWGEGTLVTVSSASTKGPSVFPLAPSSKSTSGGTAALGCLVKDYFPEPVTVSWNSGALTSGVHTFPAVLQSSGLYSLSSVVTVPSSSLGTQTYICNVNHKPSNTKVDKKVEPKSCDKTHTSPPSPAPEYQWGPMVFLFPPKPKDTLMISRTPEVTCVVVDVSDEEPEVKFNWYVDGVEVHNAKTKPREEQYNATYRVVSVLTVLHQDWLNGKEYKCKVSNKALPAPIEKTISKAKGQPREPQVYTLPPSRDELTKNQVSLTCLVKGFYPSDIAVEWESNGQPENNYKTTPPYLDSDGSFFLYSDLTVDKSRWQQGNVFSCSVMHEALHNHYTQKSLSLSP
Chain of antibody-half molecule A4 with PF1H and PF1L-k0 (PF1H-DA424v2/PF1L-k0) (heavy, as listed by the source): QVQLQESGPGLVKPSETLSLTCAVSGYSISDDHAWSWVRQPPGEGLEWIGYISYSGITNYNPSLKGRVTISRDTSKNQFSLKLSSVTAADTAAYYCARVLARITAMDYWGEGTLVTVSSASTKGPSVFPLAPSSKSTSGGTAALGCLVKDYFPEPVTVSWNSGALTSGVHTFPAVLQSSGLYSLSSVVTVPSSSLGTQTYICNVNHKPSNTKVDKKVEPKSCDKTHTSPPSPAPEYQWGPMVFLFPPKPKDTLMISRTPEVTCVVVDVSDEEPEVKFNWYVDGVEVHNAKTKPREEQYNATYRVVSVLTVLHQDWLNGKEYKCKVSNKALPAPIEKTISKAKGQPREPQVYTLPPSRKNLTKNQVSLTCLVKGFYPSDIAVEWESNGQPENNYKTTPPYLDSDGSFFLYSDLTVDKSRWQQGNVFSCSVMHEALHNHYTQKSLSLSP

- molar binding ratio [1]: 0.38 molar ratio
- molar binding ratio [2]: 0.54 molar ratio
B1: antibody-half molecule B1 with IC17H and IC17L-k0 (IC17H-DB220v2/IC17L-k0) (antibody, human IgG1, kappa)
heavy: QVQLQQSGPQLVRPGASVKISCKASGYSFTSYWMHWVNQRPGQGLEWIGMIDPSYSETRLNQKFKDKATLTVDKSSSTAYMQLSSPTSEDSAVYYCALYGNYFDYWGQGTTLTVSSASTKGPSVFPLAPSSKSTSGGTAALGCLVKDYFPEPVTVSWNSGALTSGVHTFPAVLQSSGLYSLSSVVTVPSSSLGTQTYICNVNHKPSNTKVDKKVEPKSCDKTHTSPPSPAPELLGGPSVFLFPPKPKDTLMISRTPEVTCVVVDVSHEEPEVKFNWYVDGVEVHNAKTKPREEQYNSTYRVVSVLTVLHQDWLNGKEYKCKVSNDALPMPIEETISKAKGQPREPQVYTLPPSRDELTKNQVSLTCLVKGFYPSDIAVEWESNGQPENNYKTTPPYLDSDGSFFLYSDLTVDKSRWQQGNVFSCSVMHEALHNHYTQESLSLSP
light: DIQMTQSSSSFSVSLGDRVTITCKASEDIYNRLAWYQQKPGNAPRLLISGATSLETGVPSRFSGSGSGKDYTLSITSLQTEDVATYYCQQYWSTPYTFGGGTKLEVKRTVAAPSVFIFPPSDEQLKSGTASVVCLLNNFYPREAKVQWKVDNALQSGNSQESVTEQDSKDSTYSLSSTLTLSKADYEKHKVYACEVTHQGLSSPVTKSFNRGEC

- molar binding ratio [3]: 0.27 molar ratio
B2: antibody-half molecule B5 with IC17H and IC17L-k0 (IC17H-DB430v2/IC17L-k0) (antibody, human IgG1, kappa)
heavy: QVQLQQSGPQLVRPGASVKISCKASGYSFTSYWMHWVNQRPGQGLEWIGMIDPSYSETRLNQKFKDKATLTVDKSSSTAYMQLSSPTSEDSAVYYCALYGNYFDYWGQGTTLTVSSASTKGPSVFPLAPSSKSTSGGTAALGCLVKDYFPEPVTVSWNSGALTSGVHTFPAVLQSSGLYSLSSVVTVPSSSLGTQTYICNVNHKPSNTKVDKKVEPKSCDKTHTSPPSPAPELLGGPSVFLFPPKPKDTLMISRTPEVTCVVVDVSHEEPEVKFNWYVDGVEVHNAKTKPREEQYNSTYRVVSVLTVLHQDWLNGKEYKCKVSNDALPMPIEETISKAKGQPREPQVYTLPPSRDLLTKNQVSLTCLVKGFYPSDIAVEWESNGQPENNYKTTPPYLDSDGSFFLYSDLTVDKSRWQQGNVFSCSVMHEALHNHYTQESLSLSP
light: DIQMTQSSSSFSVSLGDRVTITCKASEDIYNRLAWYQQKPGNAPRLLISGATSLETGVPSRFSGSGSGKDYTLSITSLQTEDVATYYCQQYWSTPYTFGGGTKLEVKRTVAAPSVFIFPPSDEQLKSGTASVVCLLNNFYPREAKVQWKVDNALQSGNSQESVTEQDSKDSTYSLSSTLTLSKADYEKHKVYACEVTHQGLSSPVTKSFNRGEC

- molar binding ratio [4]: 0.25 molar ratio
B3: antibody-half molecule B4 with IC17H and IC17L-k0 (IC17H-DB424v2/IC17L-k0) (antibody, human IgG1, kappa)
heavy: QVQLQQSGPQLVRPGASVKISCKASGYSFTSYWMHWVNQRPGQGLEWIGMIDPSYSETRLNQKFKDKATLTVDKSSSTAYMQLSSPTSEDSAVYYCALYGNYFDYWGQGTTLTVSSASTKGPSVFPLAPSSKSTSGGTAALGCLVKDYFPEPVTVSWNSGALTSGVHTFPAVLQSSGLYSLSSVVTVPSSSLGTQTYICNVNHKPSNTKVDKKVEPKSCDKTHTSPPSPAPELLGGPSVFLFPPKPKDTLMISRTPEVTCVVVDVSHEEPEVKFNWYVDGVEVHNAKTKPREEQYNSTYRVVSVLTVLHQDWLNGKEYKCKVSNDALPMPIEETISKAKGQPREPQVYTLPPSRDNLTKNQVSLTCLVKGFYPSDIAVEWESNGQPENNYKTTPPYLDSDGSFFLYSDLTVDKSRWQQGNVFSCSVMHEALHNHYTQESLSLSP
light: DIQMTQSSSSFSVSLGDRVTITCKASEDIYNRLAWYQQKPGNAPRLLISGATSLETGVPSRFSGSGSGKDYTLSITSLQTEDVATYYCQQYWSTPYTFGGGTKLEVKRTVAAPSVFIFPPSDEQLKSGTASVVCLLNNFYPREAKVQWKVDNALQSGNSQESVTEQDSKDSTYSLSSTLTLSKADYEKHKVYACEVTHQGLSSPVTKSFNRGEC

- molar binding ratio [5]: 0.42 molar ratio
B4: antibody-half molecule B6 with IC17H and IC17L-k0 (IC17H-DB220v2.n.n/IC17L-k0) (antibody, human IgG1, kappa)
heavy: QVQLQQSGPQLVRPGASVKISCKASGYSFTSYWMHWVNQRPGQGLEWIGMIDPSYSETRLNQKFKDKATLTVDKSSSTAYMQLSSPTSEDSAVYYCALYGNYFDYWGQGTTLTVSSASTKGPSVFPLAPSSKSTSGGTAALGCLVKDYFPEPVTVSWNSGALTSGVHTFPAVLQSSGLYSLSSVVTVPSSSLGTQTYICNVNHKPSNTKVDKKVEPKSCDKTHTSPPSPAPELLGGPSVFLFPPKPKDTLMISRTPEVTCVVVDVSHEEPEVKFNWYVDGVEVHNAKTKPREEQYNSTYRVVSVLTVLHQDWLNGKEYKCKVSNDALPMPIEETISKAKGQPREPQVYTLPPSRDELTKNQVSLTCLVKGFYPSDIAVEWESNGQPENNYKTTPPYLDSDGSFFLYSDLTVDKSRWQQGNVFSCSVMHEALHNHYTQKSLSLSP
light: DIQMTQSSSSFSVSLGDRVTITCKASEDIYNRLAWYQQKPGNAPRLLISGATSLETGVPSRFSGSGSGKDYTLSITSLQTEDVATYYCQQYWSTPYTFGGGTKLEVKRTVAAPSVFIFPPSDEQLKSGTASVVCLLNNFYPREAKVQWKVDNALQSGNSQESVTEQDSKDSTYSLSSTLTLSKADYEKHKVYACEVTHQGLSSPVTKSFNRGEC

- molar binding ratio [6]: 0.63 molar ratio
B5: antibody-half molecule B2 with IC17H and IC17L-k0 (IC17H-DB402v2/IC17L-k0) (antibody, human IgG1, kappa)
heavy: QVQLQQSGPQLVRPGASVKISCKASGYSFTSYWMHWVNQRPGQGLEWIGMIDPSYSETRLNQKFKDKATLTVDKSSSTAYMQLSSPTSEDSAVYYCALYGNYFDYWGQGTTLTVSSASTKGPSVFPLAPSSKSTSGGTAALGCLVKDYFPEPVTVSWNSGALTSGVHTFPAVLQSSGLYSLSSVVTVPSSSLGTQTYICNVNHKPSNTKVDKKVEPKSCDKTHTSPPSPAPELLGGPSVFLFPPKPKDTLMISRTPEVTCVVVDVSHEEPEVKFNWYVDGVEVHNAKTKPREEQYNSTYRVVSVLTVLHQDWLNGKEYKCKVSNDALPMPIEETISKAKGQPREPQVYTLPPSRDELTKNQVSLTCLVKGFYPSDIAVEWESNGQPENNYKTTPPYLDSDGSFFLYSHLTVDKSRWQQGNVFSCSVMHEALHNHYTQESLSLSP
light: DIQMTQSSSSFSVSLGDRVTITCKASEDIYNRLAWYQQKPGNAPRLLISGATSLETGVPSRFSGSGSGKDYTLSITSLQTEDVATYYCQQYWSTPYTFGGGTKLEVKRTVAAPSVFIFPPSDEQLKSGTASVVCLLNNFYPREAKVQWKVDNALQSGNSQESVTEQDSKDSTYSLSSTLTLSKADYEKHKVYACEVTHQGLSSPVTKSFNRGEC

- molar binding ratio [7]: 0.54 molar ratio
B6: antibody-half molecule B3 with IC17H and IC17L-k0 (IC17H-DB405v2/IC17L-k0) (antibody, human IgG1, kappa)
heavy: QVQLQQSGPQLVRPGASVKISCKASGYSFTSYWMHWVNQRPGQGLEWIGMIDPSYSETRLNQKFKDKATLTVDKSSSTAYMQLSSPTSEDSAVYYCALYGNYFDYWGQGTTLTVSSASTKGPSVFPLAPSSKSTSGGTAALGCLVKDYFPEPVTVSWNSGALTSGVHTFPAVLQSSGLYSLSSVVTVPSSSLGTQTYICNVNHKPSNTKVDKKVEPKSCDKTHTSPPSPAPELLGGPSVFLFPPKPKDTLMISRTPEVTCVVVDVSHEEPEVKFNWYVDGVEVHNAKTKPREEQYNSTYRVVSVLTVLHQDWLNGKEYKCKVSNDALPMPIEETISKAKGQPREPQVYTLPPSRDELTKNQVSLTCLVKGFYPSDIAVEWESNGQPENNYKTTPPYLDSDGSFFLYSTLTVDKSRWQQGNVFSCSVMHEALHNHYTQESLSLSP
light: DIQMTQSSSSFSVSLGDRVTITCKASEDIYNRLAWYQQKPGNAPRLLISGATSLETGVPSRFSGSGSGKDYTLSITSLQTEDVATYYCQQYWSTPYTFGGGTKLEVKRTVAAPSVFIFPPSDEQLKSGTASVVCLLNNFYPREAKVQWKVDNALQSGNSQESVTEQDSKDSTYSLSSTLTLSKADYEKHKVYACEVTHQGLSSPVTKSFNRGEC
